Data from publication PMC5218393.

B1: recombinant Lu extracellular domain fused with an Fc-Tag (Lu-Fc), P50895 R175N (protein)
chain: EVRLSVPPLVEVMRGKSVILDCTPTGTHDHYMLEWFLTDRSGARPRLASAEMQGSELQVTMHDTRGRSPPYQLDSQGRLVLAEAQVGDERDYVCVVRAGAAGTAEATARLNVFAKPEATEVSPNKGTLSVMEDSAQEIATCNSNNGNPAPKITWYRNGQRLEVPVEMNPEGYMTSRTVREASGLLSLTSTLYLRLRKDDRDASFHCAAHYSLPEGRHGRLDSPTFHLTLHYPTEHVQFWVGSPSTPAGWVREGDTVQLLCRGDGSPSPEYTLFRLQDEQEEVLNVNLEGNLTLEGVTRGQSGTYGCRVEDYDAADDVQLSKTLELRVAYLDPLELSEGKVLSLPLNSSAVVNCSVHGLPTPALRWTKDSTPLGDGPMLSLSSITFDSNGTYVCEASLPTVPVLSRTQNFTLLVQGSPELKTAEIEPKADGSWREGDEVTLICSARGHPDPKLSWSQLGGSPAEPIPGRQGWVSSSLTLKVTSALSRDGISCEASNPHGNKRHVFHFGTVSPQTSQA
B2: recombinant Lu extracellular domain fused with an Fc-Tag (Lu-Fc), P50895 A149D (protein)
chain: EVRLSVPPLVEVMRGKSVILDCTPTGTHDHYMLEWFLTDRSGARPRLASAEMQGSELQVTMHDTRGRSPPYQLDSQGRLVLAEAQVGDERDYVCVVRAGAAGTAEATARLNVFAKPEDTEVSPNKGTLSVMEDSAQEIATCNSRNGNPAPKITWYRNGQRLEVPVEMNPEGYMTSRTVREASGLLSLTSTLYLRLRKDDRDASFHCAAHYSLPEGRHGRLDSPTFHLTLHYPTEHVQFWVGSPSTPAGWVREGDTVQLLCRGDGSPSPEYTLFRLQDEQEEVLNVNLEGNLTLEGVTRGQSGTYGCRVEDYDAADDVQLSKTLELRVAYLDPLELSEGKVLSLPLNSSAVVNCSVHGLPTPALRWTKDSTPLGDGPMLSLSSITFDSNGTYVCEASLPTVPVLSRTQNFTLLVQGSPELKTAEIEPKADGSWREGDEVTLICSARGHPDPKLSWSQLGGSPAEPIPGRQGWVSSSLTLKVTSALSRDGISCEASNPHGNKRHVFHFGTVSPQTSQA
B3: recombinant Lu extracellular domain fused with an Fc-Tag (Lu-Fc), P50895 P254H (protein)
chain: EVRLSVPPLVEVMRGKSVILDCTPTGTHDHYMLEWFLTDRSGARPRLASAEMQGSELQVTMHDTRGRSPPYQLDSQGRLVLAEAQVGDERDYVCVVRAGAAGTAEATARLNVFAKPEATEVSPNKGTLSVMEDSAQEIATCNSRNGNPAPKITWYRNGQRLEVPVEMNPEGYMTSRTVREASGLLSLTSTLYLRLRKDDRDASFHCAAHYSLPEGRHGRLDSHTFHLTLHYPTEHVQFWVGSPSTPAGWVREGDTVQLLCRGDGSPSPEYTLFRLQDEQEEVLNVNLEGNLTLEGVTRGQSGTYGCRVEDYDAADDVQLSKTLELRVAYLDPLELSEGKVLSLPLNSSAVVNCSVHGLPTPALRWTKDSTPLGDGPMLSLSSITFDSNGTYVCEASLPTVPVLSRTQNFTLLVQGSPELKTAEIEPKADGSWREGDEVTLICSARGHPDPKLSWSQLGGSPAEPIPGRQGWVSSSLTLKVTSALSRDGISCEASNPHGNKRHVFHFGTVSPQTSQA
B4: mouse Lu-Fc (MsLu-Fc), Q9R069 D142A; N168R; H247P (protein)
chain: ELHVSVPPRVEVMRGEQVALDCTPREHPEHYVLEWFLVDGTGARHRLASVEPQGSEFLGTVHSLGRVPPYEVDSRGRLVIAKVQVGDGRDYVCVVKAGAAGTSEATSSVRVFATPEATEVSPNKGTLSVMDQFAQEIATCSSRNGNPVPRITWYRNGQRLEVPMEVNQKGYITIRTVREASGLYSLTSTLYLRLHKDDRDANFHCAAHYDLPSGQHGRLDSPTFRLTLHYPTEHVEFWVGSPSTTEGWVREGDAVQLLCQGDGSPSPEYSFFRQQGTQEEQLNVNLKGNLTLERVHRNQSGIYGCRVEDYDADEEVQLVKKLKLHVAYLDPLELSVPEELFVFLNSSSTVVNCSARGLPTPTVRWTKDSVTLADGPMLSLQSVTFDSAGTYTCEASTPTVPLLSRTQSFQLIVQGAPELKPNEIMPKSGNSWTEGDEVMLTCSARGFPEPKLTWSQRGDTPAEPPFEGRGWKSSSLMVKVTSALSREGVSCEASNIHGKKGHVFHFGSVAPQTAQA
B5: recombinant Lu extracellular domain fused with an Fc-Tag (Lu-Fc), P50895 H257R (protein)
chain: EVRLSVPPLVEVMRGKSVILDCTPTGTHDHYMLEWFLTDRSGARPRLASAEMQGSELQVTMHDTRGRSPPYQLDSQGRLVLAEAQVGDERDYVCVVRAGAAGTAEATARLNVFAKPEATEVSPNKGTLSVMEDSAQEIATCNSRNGNPAPKITWYRNGQRLEVPVEMNPEGYMTSRTVREASGLLSLTSTLYLRLRKDDRDASFHCAAHYSLPEGRHGRLDSPTFRLTLHYPTEHVQFWVGSPSTPAGWVREGDTVQLLCRGDGSPSPEYTLFRLQDEQEEVLNVNLEGNLTLEGVTRGQSGTYGCRVEDYDAADDVQLSKTLELRVAYLDPLELSEGKVLSLPLNSSAVVNCSVHGLPTPALRWTKDSTPLGDGPMLSLSSITFDSNGTYVCEASLPTVPVLSRTQNFTLLVQGSPELKTAEIEPKADGSWREGDEVTLICSARGHPDPKLSWSQLGGSPAEPIPGRQGWVSSSLTLKVTSALSRDGISCEASNPHGNKRHVFHFGTVSPQTSQA
B6: recombinant Lu extracellular domain fused with an Fc-Tag (Lu-Fc), P50895 E245S (protein)
chain: EVRLSVPPLVEVMRGKSVILDCTPTGTHDHYMLEWFLTDRSGARPRLASAEMQGSELQVTMHDTRGRSPPYQLDSQGRLVLAEAQVGDERDYVCVVRAGAAGTAEATARLNVFAKPEATEVSPNKGTLSVMEDSAQEIATCNSRNGNPAPKITWYRNGQRLEVPVEMNPEGYMTSRTVREASGLLSLTSTLYLRLRKDDRDASFHCAAHYSLPSGRHGRLDSPTFHLTLHYPTEHVQFWVGSPSTPAGWVREGDTVQLLCRGDGSPSPEYTLFRLQDEQEEVLNVNLEGNLTLEGVTRGQSGTYGCRVEDYDAADDVQLSKTLELRVAYLDPLELSEGKVLSLPLNSSAVVNCSVHGLPTPALRWTKDSTPLGDGPMLSLSSITFDSNGTYVCEASLPTVPVLSRTQNFTLLVQGSPELKTAEIEPKADGSWREGDEVTLICSARGHPDPKLSWSQLGGSPAEPIPGRQGWVSSSLTLKVTSALSRDGISCEASNPHGNKRHVFHFGTVSPQTSQA
B7: recombinant Lu extracellular domain fused with an Fc-Tag (Lu-Fc), P50895 S242D (protein)
chain: EVRLSVPPLVEVMRGKSVILDCTPTGTHDHYMLEWFLTDRSGARPRLASAEMQGSELQVTMHDTRGRSPPYQLDSQGRLVLAEAQVGDERDYVCVVRAGAAGTAEATARLNVFAKPEATEVSPNKGTLSVMEDSAQEIATCNSRNGNPAPKITWYRNGQRLEVPVEMNPEGYMTSRTVREASGLLSLTSTLYLRLRKDDRDASFHCAAHYDLPEGRHGRLDSPTFHLTLHYPTEHVQFWVGSPSTPAGWVREGDTVQLLCRGDGSPSPEYTLFRLQDEQEEVLNVNLEGNLTLEGVTRGQSGTYGCRVEDYDAADDVQLSKTLELRVAYLDPLELSEGKVLSLPLNSSAVVNCSVHGLPTPALRWTKDSTPLGDGPMLSLSSITFDSNGTYVCEASLPTVPVLSRTQNFTLLVQGSPELKTAEIEPKADGSWREGDEVTLICSARGHPDPKLSWSQLGGSPAEPIPGRQGWVSSSLTLKVTSALSRDGISCEASNPHGNKRHVFHFGTVSPQTSQA
B8: recombinant Lu extracellular domain fused with an Fc-Tag (Lu-Fc), P50895 R247Q (protein)
chain: EVRLSVPPLVEVMRGKSVILDCTPTGTHDHYMLEWFLTDRSGARPRLASAEMQGSELQVTMHDTRGRSPPYQLDSQGRLVLAEAQVGDERDYVCVVRAGAAGTAEATARLNVFAKPEATEVSPNKGTLSVMEDSAQEIATCNSRNGNPAPKITWYRNGQRLEVPVEMNPEGYMTSRTVREASGLLSLTSTLYLRLRKDDRDASFHCAAHYSLPEGQHGRLDSPTFHLTLHYPTEHVQFWVGSPSTPAGWVREGDTVQLLCRGDGSPSPEYTLFRLQDEQEEVLNVNLEGNLTLEGVTRGQSGTYGCRVEDYDAADDVQLSKTLELRVAYLDPLELSEGKVLSLPLNSSAVVNCSVHGLPTPALRWTKDSTPLGDGPMLSLSSITFDSNGTYVCEASLPTVPVLSRTQNFTLLVQGSPELKTAEIEPKADGSWREGDEVTLICSARGHPDPKLSWSQLGGSPAEPIPGRQGWVSSSLTLKVTSALSRDGISCEASNPHGNKRHVFHFGTVSPQTSQA
B9: mouse Lu-Fc (MsLu-Fc), Q9R069 Q240R (protein)
chain: ELHVSVPPRVEVMRGEQVALDCTPREHPEHYVLEWFLVDGTGARHRLASVEPQGSEFLGTVHSLGRVPPYEVDSRGRLVIAKVQVGDGRDYVCVVKAGAAGTSEATSSVRVFATPEDTEVSPNKGTLSVMDQFAQEIATCSSNNGNPVPRITWYRNGQRLEVPMEVNQKGYITIRTVREASGLYSLTSTLYLRLHKDDRDANFHCAAHYDLPSGRHGRLDSHTFRLTLHYPTEHVEFWVGSPSTTEGWVREGDAVQLLCQGDGSPSPEYSFFRQQGTQEEQLNVNLKGNLTLERVHRNQSGIYGCRVEDYDADEEVQLVKKLKLHVAYLDPLELSVPEELFVFLNSSSTVVNCSARGLPTPTVRWTKDSVTLADGPMLSLQSVTFDSAGTYTCEASTPTVPLLSRTQSFQLIVQGAPELKPNEIMPKSGNSWTEGDEVMLTCSARGFPEPKLTWSQRGDTPAEPPFEGRGWKSSSLMVKVTSALSREGVSCEASNIHGKKGHVFHFGSVAPQTAQA

These binders were tested against C7 scFv (soluble, purified) (assay: competition ELISA). Conditions: chain shown with the change; C7 scFv 0.6 μg/ml mixed with the mutant protein; competition format: a low value means the soluble protein binds the scFv; parent: est. 5; read off a plot.
Sequence of C7 scFv (soluble, purified) (chain, as listed by the source, chain 1 of 2): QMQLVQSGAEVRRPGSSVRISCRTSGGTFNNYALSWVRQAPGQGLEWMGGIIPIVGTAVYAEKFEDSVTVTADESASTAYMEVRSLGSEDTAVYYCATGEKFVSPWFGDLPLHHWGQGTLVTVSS
Sequence of C7 scFv (soluble, purified) (chain, as listed by the source, chain 2 of 2): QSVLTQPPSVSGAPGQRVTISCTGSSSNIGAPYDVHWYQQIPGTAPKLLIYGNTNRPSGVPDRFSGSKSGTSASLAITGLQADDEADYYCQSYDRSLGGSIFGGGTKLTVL
An other: Relative binding (residual antibody binding to coated antigen with the mutant protein as competitor) of 4% was found for B1 in this work. An other: Relative binding (residual antibody binding to coated antigen with the mutant protein as competitor) of 3% was found for B2 in this work. An other: Relative binding (residual antibody binding to coated antigen with the mutant protein as competitor) of 3% was found for B3 in this work.

Same assay, conditions: chain shown with the change; C7 scFv 0.6 μg/ml mixed with the mutant protein; competition format: a low value means the soluble protein binds the scFv; parent: est. 110; read off a plot
An other: Relative binding (residual antibody binding to coated antigen with the mutant protein as competitor) of 95% was found for B4 in this work.

Same assay, conditions: chain shown with the change; mutant protein mixed with diluted C7 scFv; wells coated with Lu-Fc; competition format: a low value means the soluble protein binds the scFv; read off a plot
An other: Relative binding (residual antibody binding to coated Lu-Fc with the mutant protein as competitor) of 3% was found for B5 in this work. An other: Relative binding (residual antibody binding to coated Lu-Fc with the mutant protein as competitor) of 22% was found for B6 in this work. An other: Relative binding (residual antibody binding to coated Lu-Fc with the mutant protein as competitor) of 18% was found for B7 in this work. An other: Relative binding (residual antibody binding to coated Lu-Fc with the mutant protein as competitor) of 87% was found for B8 in this work. An other: Relative binding (residual antibody binding to coated Lu-Fc with the mutant protein as competitor) of 14% was found for B9 in this work.
